T1: Lon protease (Caulobacter crescentus) (Caulobacter crescentus, UniProt P0CAW0 1-799)
T1 sequence (looked up): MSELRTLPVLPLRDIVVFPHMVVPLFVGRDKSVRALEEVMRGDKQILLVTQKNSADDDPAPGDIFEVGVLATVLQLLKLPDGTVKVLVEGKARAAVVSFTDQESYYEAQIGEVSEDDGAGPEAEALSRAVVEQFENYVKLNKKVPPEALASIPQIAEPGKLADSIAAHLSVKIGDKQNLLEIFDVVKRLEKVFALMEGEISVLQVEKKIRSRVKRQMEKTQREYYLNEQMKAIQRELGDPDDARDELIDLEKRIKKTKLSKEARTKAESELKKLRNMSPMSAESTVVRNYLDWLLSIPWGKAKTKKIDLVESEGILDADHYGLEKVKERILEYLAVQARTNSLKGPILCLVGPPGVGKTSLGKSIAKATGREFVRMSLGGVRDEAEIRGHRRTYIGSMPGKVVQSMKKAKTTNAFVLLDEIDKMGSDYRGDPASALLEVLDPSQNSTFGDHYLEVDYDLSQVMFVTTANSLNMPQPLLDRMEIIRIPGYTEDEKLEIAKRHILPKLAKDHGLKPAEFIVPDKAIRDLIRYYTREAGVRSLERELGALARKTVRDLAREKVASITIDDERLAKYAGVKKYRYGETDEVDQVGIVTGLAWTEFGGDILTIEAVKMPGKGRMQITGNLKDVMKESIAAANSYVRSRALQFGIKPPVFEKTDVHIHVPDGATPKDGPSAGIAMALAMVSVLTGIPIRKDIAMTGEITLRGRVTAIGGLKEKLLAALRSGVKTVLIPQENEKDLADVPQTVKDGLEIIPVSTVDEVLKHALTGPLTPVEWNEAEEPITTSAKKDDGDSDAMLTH

B1: DnaA fragment 117-391 (linker domain II and AAA+ ATPase domain III) (domain or fragment, Caulobacter crescentus, UniProt P0CAU4 117-391, looked up)
chain: AVAAEPIEIVLPVSTDAPTVVAPSAKSPRTQGLQERFTFETFVPGPANEFAHAVARRIANWADGHFNPVLFHGPYGFGKTHLLNALAWEAMRNAPEKRVVYLTAERFLSTFVRAVMDRQTAAFKEELRAADLLIIDDVHFIAGKQSTQEELFHTLTALVGEGGRVVFSADRPPSAMTEMDAHLRSHLSAGLVCGLEPADRNLRLGILERKIQTLGAAHGFEPSIRPEVMQFLADRFTDSVRELEGALNTLSARAGEGLSRMTLDEVQAILRPHLR
B2: DnaA fragment 143-391 (AAA+ ATPase domain III) (domain or fragment, Caulobacter crescentus, UniProt P0CAU4 143-391, looked up)
chain: SPRTQGLQERFTFETFVPGPANEFAHAVARRIANWADGHFNPVLFHGPYGFGKTHLLNALAWEAMRNAPEKRVVYLTAERFLSTFVRAVMDRQTAAFKEELRAADLLIIDDVHFIAGKQSTQEELFHTLTALVGEGGRVVFSADRPPSAMTEMDAHLRSHLSAGLVCGLEPADRNLRLGILERKIQTLGAAHGFEPSIRPEVMQFLADRFTDSVRELEGALNTLSARAGEGLSRMTLDEVQAILRPHLR
B3: DnaA fragment 143-490 (domains III+IV) (domain or fragment, Caulobacter crescentus, UniProt P0CAU4 143-490, looked up)
chain: SPRTQGLQERFTFETFVPGPANEFAHAVARRIANWADGHFNPVLFHGPYGFGKTHLLNALAWEAMRNAPEKRVVYLTAERFLSTFVRAVMDRQTAAFKEELRAADLLIIDDVHFIAGKQSTQEELFHTLTALVGEGGRVVFSADRPPSAMTEMDAHLRSHLSAGLVCGLEPADRNLRLGILERKIQTLGAAHGFEPSIRPEVMQFLADRFTDSVRELEGALNTLSARAGEGLSRMTLDEVQAILRPHLRSGEKRITIDDIQKATAEHYGMKQADLLSERRNRAVARPRQAAMWLAKQLTTRSLPDIGRRFGGRDHTTVLHAVRRIEALRAEDSALSHDLETLTRKLRG

What follows are binders tested against T1, Lon protease (Caulobacter crescentus) (assay: filtration-spin binding assay).

Binding result, binds:
B1
B2
B3

From article doi:10.1101/301655 (bioRxiv, 2018)
